Here are results for one molecule from publication PMC8096265, “A functional LSD1 coregulator screen reveals a novel transcriptional regulatory cascade connecting R-loop homeostasis with epigenetic regulation” (Nucleic Acids Research, 2021).

Ends that are not written are not given here.

By Kd is commonly meant the equilibrium constant for the complex coming apart.

The target of this experiment is T1, GST-DDX19A (recombinant full-length DEAD-box helicase 19A) (UniProt Q9NUU7 1-478).
T1 construct: DEAD-box helicase 19A (DDX19A), expressed from pGEX-DDX19A; Printed both as GST-DDX19A and as DDX19A-GST; no cleavage of GST is described, and the array is detected by anti-GST. pGEX vectors usually put GST at the N-terminus (surmise); also called DDX19A-GST; recombinant DDX19A
T1 sequence (looked up): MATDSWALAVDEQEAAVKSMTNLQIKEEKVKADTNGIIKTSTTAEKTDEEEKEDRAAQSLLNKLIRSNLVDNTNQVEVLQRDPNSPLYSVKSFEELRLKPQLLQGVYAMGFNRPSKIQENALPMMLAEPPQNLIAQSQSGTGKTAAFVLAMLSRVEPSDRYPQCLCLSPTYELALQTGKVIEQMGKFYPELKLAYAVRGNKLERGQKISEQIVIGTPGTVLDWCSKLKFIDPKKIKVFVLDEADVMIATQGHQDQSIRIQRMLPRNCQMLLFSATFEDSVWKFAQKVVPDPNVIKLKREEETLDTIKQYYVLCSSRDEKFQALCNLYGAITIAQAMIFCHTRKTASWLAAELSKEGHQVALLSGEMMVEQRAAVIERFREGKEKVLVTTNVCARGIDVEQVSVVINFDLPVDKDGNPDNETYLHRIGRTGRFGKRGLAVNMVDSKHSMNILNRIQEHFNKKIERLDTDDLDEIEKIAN
Put plainly: fluorescence polarisation; fluorescence anisotropy; 50 nM FITC-labelled H3.1 (16-34) peptide in 20 mM HEPES pH 7.5, 100 mM KCl, 0.1 mM DTT, 10% glycerol; DDX19A added stepwise; 23°C; fit to a simple binding equilibrium. The following applies: both partners purified. (In general: In fluorescence polarisation assays a small probe gives low polarisation when free and higher when bound to something large.)

As for PRKQLATKAARKSAPATGG (also: FITC label, position not given here) [FITC-labelled H3.1 peptide (residues 16-34), unmodified], the dissociation constant Kd was over 1000 nM.
